Experimental findings from patent US20250236657A1 (TOSOH, published 2025) are described below.

Holding throughout (test): affinity HPLC, POROS AAVX resin, linear pH gradient 4.5 to 2.2, AAV2 peak top
For assay [1], the target named is AAV2 D529E (adeno-associated virus serotype 2 (AAV2)) (UniProt P03135).
The target of assay [2] is AAV2 H271F (adeno-associated virus serotype 2 (AAV2)) (UniProt P03135).
Assay [3] has as its target AAV2 E499A (adeno-associated virus serotype 2 (AAV2)) (UniProt P03135).
For assay [4], the target named is AAV2 H271A (adeno-associated virus serotype 2 (AAV2)) (UniProt P03135).
The target in assay [5] is AAV2 S267T (adeno-associated virus serotype 2 (AAV2)) (UniProt P03135).
The target in assay [6] is AAV2 S267A (adeno-associated virus serotype 2 (AAV2)) (UniProt P03135).
In assay [7] the target is AAV2 H271T (adeno-associated virus serotype 2 (AAV2)) (UniProt P03135).
The target in assay [8] is AAV2 R471A (adeno-associated virus serotype 2 (AAV2)) (UniProt P03135).
For assay [9], the target named is AAV2 G383A (adeno-associated virus serotype 2 (AAV2)) (UniProt P03135).
Assay [10] concerns the target AAV2 Q263A (adeno-associated virus serotype 2 (AAV2)) (UniProt P03135).

“POROS Capture Select AAVX Affinity Resin (manufactured by Thermo Fisher Scientific)”: the AAVX column elution time in assay [1] was 48 min; in assay [2] it was 48.1 min; in assay [3], 47.8 min; in [4] it was 48.2 min; in assay [5], 48 min; in assay [6] it was 48 min. Moreover, the AAVX column elution time in [7] was determined as 47.9 min; in assay [8] it was 48.1 min; in assay [9] it was 48.1 min; in assay [10], 48 min.
